{"source": "patent US20120171195A1", "key": {"HLA-B*1401 (human)": {"molecular_target": "HLA-B*1401 (human) (UniProt P01889)", "assay": "Luminex beads; MAb 1/100; PBS only"}, "HLA-B*1511 (human)": {"molecular_target": "HLA-B*1511 (human) (UniProt P01889)", "assay": "Luminex beads; MAb 1/100; PBS only"}, "HLA-B*1801 (human) [1]": {"molecular_target": "HLA-B*1801 (human)", "assay": "Luminex beads; MAb 1/100; PBS only"}, "HLA-B*4006 (human)": {"molecular_target": "HLA-B*4006 (human) (UniProt P01889)", "assay": "Luminex beads; MAb 1/100; PBS only"}, "HLA-B*4501 (human)": {"molecular_target": "HLA-B*4501 (human)", "assay": "Luminex beads; MAb 1/100; PBS only"}, "HLA-B*4701 (human)": {"molecular_target": "HLA-B*4701 (human)", "assay": "Luminex beads; MAb 1/100; PBS only"}, "HLA-B*5101 (human) [2]": {"molecular_target": "HLA-B*5101 (human)", "assay": "Luminex beads; MAb 1/100; PBS only"}, "HLA-B*5801 (human) [3]": {"molecular_target": "HLA-B*5801 (human)", "assay": "Luminex beads; MAb 1/100; PBS only"}, "HLA-Cw*0202 (human)": {"molecular_target": "HLA-Cw*0202 (human)", "assay": "Luminex beads; MAb 1/100; PBS only"}, "HLA-Cw*0303 (human)": {"molecular_target": "HLA-Cw*0303 (human)", "assay": "Luminex beads; MAb 1/100; PBS only"}, "HLA-Cw*0501 (human) [4]": {"molecular_target": "HLA-Cw*0501 (human)", "assay": "Luminex beads; MAb 1/100; PBS only"}, "HLA-Cw*0602 (human)": {"molecular_target": "HLA-Cw*0602 (human) (UniProt P10321)", "assay": "Luminex beads; MAb 1/100; PBS only"}, "HLA-Cw*0702 (human)": {"molecular_target": "HLA-Cw*0702 (human) (UniProt P10321)", "assay": "Luminex beads; MAb 1/100; PBS only"}, "HLA-Cw*1402 (human) [5]": {"molecular_target": "HLA-Cw*1402 (human) (UniProt P10321)", "assay": "Luminex beads; MAb 1/100; PBS only"}, "HLA-Cw*1701 (human) [6]": {"molecular_target": "HLA-Cw*1701 (human)", "assay": "Luminex beads; MAb 1/100; PBS only"}, "HLA-B*3701 (human) [7]": {"molecular_target": "HLA-B*3701 (human)", "assay": "Luminex beads; MAb 1/800; competitor rHLA-E"}, "HLA-B*5101 (human) [8]": {"molecular_target": "HLA-B*5101 (human)", "assay": "Luminex beads; MAb 1/800; competitor rHLA-E"}, "HLA-Cw*0501 (human) [9]": {"molecular_target": "HLA-Cw*0501 (human)", "assay": "Luminex beads; MAb 1/800; competitor rHLA-E"}, "HLA-Cw*1402 (human) [10]": {"molecular_target": "HLA-Cw*1402 (human) (UniProt P10321)", "assay": "Luminex beads; MAb 1/800; competitor rHLA-E"}, "HLA-Cw*1601 (human)": {"molecular_target": "HLA-Cw*1601 (human) (UniProt P10321)", "assay": "Luminex beads; MAb 1/800; competitor rHLA-E"}, "HLA-Cw*1802 (human) [11]": {"molecular_target": "HLA-Cw*1802 (human) (UniProt P10321)", "assay": "Luminex beads; MAb 1/800; competitor rHLA-E"}, "HLA-B*0801 (human)": {"molecular_target": "HLA-B*0801 (human) (UniProt P01889)", "assay": "Luminex beads; MAb 1/800; competitor IgG-free serum"}, "HLA-B*1402 (human)": {"molecular_target": "HLA-B*1402 (human)", "assay": "Luminex beads; MAb 1/800; competitor IgG-free serum"}, "HLA-B*1801 (human) [12]": {"molecular_target": "HLA-B*1801 (human)", "assay": "Luminex beads; MAb 1/800; competitor IgG-free serum"}, "HLA-B*2708 (human)": {"molecular_target": "HLA-B*2708 (human) (UniProt P01889)", "assay": "Luminex beads; MAb 1/800; competitor IgG-free serum"}, "HLA-B*3701 (human) [13]": {"molecular_target": "HLA-B*3701 (human)", "assay": "Luminex beads; MAb 1/800; competitor IgG-free serum"}, "HLA-B*4002 (human)": {"molecular_target": "HLA-B*4002 (human) (UniProt P01889)", "assay": "Luminex beads; MAb 1/800; competitor IgG-free serum"}, "HLA-B*5101 (human) [14]": {"molecular_target": "HLA-B*5101 (human)", "assay": "Luminex beads; MAb 1/800; competitor IgG-free serum"}, "HLA-B*5201 (human)": {"molecular_target": "HLA-B*5201 (human)", "assay": "Luminex beads; MAb 1/800; competitor IgG-free serum"}, "HLA-B*5801 (human) [15]": {"molecular_target": "HLA-B*5801 (human)", "assay": "Luminex beads; MAb 1/800; competitor IgG-free serum"}, "HLA-Cw*1402 (human) [16]": {"molecular_target": "HLA-Cw*1402 (human) (UniProt P10321)", "assay": "Luminex beads; MAb 1/800; competitor IgG-free serum"}, "HLA-Cw*1701 (human) [17]": {"molecular_target": "HLA-Cw*1701 (human)", "assay": "Luminex beads; MAb 1/800; competitor IgG-free serum"}, "HLA-Cw*1802 (human) [18]": {"molecular_target": "HLA-Cw*1802 (human) (UniProt P10321)", "assay": "Luminex beads; MAb 1/800; competitor IgG-free serum"}, "HLA-A*2501 (A25) (human)": {"molecular_target": "HLA-A*2501 (A25) (human)", "assay": "Luminex single-antigen beads; rank of MEM-E/02 reactivity among HLA-Ia alleles"}, "HLA-A*2601 (A26) (human)": {"molecular_target": "HLA-A*2601 (A26) (human)", "assay": "Luminex single-antigen beads; rank of MEM-E/02 reactivity among HLA-Ia alleles"}, "HLA-A*2901 (A29) (human)": {"molecular_target": "HLA-A*2901 (A29) (human) (UniProt P04439)", "assay": "Luminex single-antigen beads; rank of MEM-E/02 reactivity among HLA-Ia alleles"}, "HLA-A*3201 (A32) (human)": {"molecular_target": "HLA-A*3201 (A32) (human)", "assay": "Luminex single-antigen beads; rank of MEM-E/02 reactivity among HLA-Ia alleles"}, "HLA-B*1401 (B64) (human)": {"molecular_target": "HLA-B*1401 (B64) (human) (UniProt P01889)", "assay": "Luminex single-antigen beads; rank of MEM-E/02 reactivity among HLA-Ia alleles"}, "HLA-B*1513 (B77) (human)": {"molecular_target": "HLA-B*1513 (B77) (human)", "assay": "Luminex single-antigen beads; rank of MEM-E/02 reactivity among HLA-Ia alleles"}, "HLA-B*1516 (B63) (human)": {"molecular_target": "HLA-B*1516 (B63) (human)", "assay": "Luminex single-antigen beads; rank of MEM-E/02 reactivity among HLA-Ia alleles"}, "HLA-B*4403 (B44) (human)": {"molecular_target": "HLA-B*4403 (B44) (human)", "assay": "Luminex single-antigen beads; rank of MEM-E/02 reactivity among HLA-Ia alleles"}, "HLA-B*5901 (B59) (human)": {"molecular_target": "HLA-B*5901 (B59) (human)", "assay": "Luminex single-antigen beads; rank of MEM-E/02 reactivity among HLA-Ia alleles"}, "[19]": {"molecular_target": "HLA-Cw*0401 (Cw4) (human)", "assay": "Luminex single-antigen beads; rank of MEM-E/02 reactivity among HLA-Ia alleles"}, "[20]": {"molecular_target": "HLA-Cw*0801 (Cw8) (human) (UniProt P10321)", "assay": "Luminex single-antigen beads; rank of MEM-E/02 reactivity among HLA-Ia alleles"}, "[21]": {"molecular_target": "HLA-Cw*1502 (Cw15) (human)", "assay": "Luminex single-antigen beads; rank of MEM-E/02 reactivity among HLA-Ia alleles"}}, "data": [{"substance": "murine monoclonal antibody (MAb) MEM-E/02", "values": [{"measurement": "MFI", "setting": "HLA-B*1401 (human)", "value": 7340, "unit": "MFI"}, {"measurement": "MFI", "setting": "HLA-B*1511 (human)", "value": 3430, "unit": "MFI"}, {"measurement": "MFI", "setting": "HLA-B*1801 (human) [1]", "value": 3540, "unit": "MFI"}, {"measurement": "MFI", "setting": "HLA-B*4006 (human)", "value": 8590, "unit": "MFI"}, {"measurement": "MFI", "setting": "HLA-B*4501 (human)", "value": 4770, "unit": "MFI"}, {"measurement": "MFI", "setting": "HLA-B*4701 (human)", "value": 3650, "unit": "MFI"}, {"measurement": "MFI", "setting": "HLA-B*5101 (human) [2]", "value": 2210, "unit": "MFI"}, {"measurement": "MFI", "setting": "HLA-B*5801 (human) [3]", "value": 3990, "unit": "MFI"}, {"measurement": "MFI", "setting": "HLA-Cw*0202 (human)", "value": 3880, "unit": "MFI"}, {"measurement": "MFI", "setting": "HLA-Cw*0303 (human)", "value": 3200, "unit": "MFI"}, {"measurement": "MFI", "setting": "HLA-Cw*0501 (human) [4]", "value": 7180, "unit": "MFI"}, {"measurement": "MFI", "setting": "HLA-Cw*0602 (human)", "value": 4040, "unit": "MFI"}, {"measurement": "MFI", "setting": "HLA-Cw*0702 (human)", "value": 3080, "unit": "MFI"}, {"measurement": "MFI", "setting": "HLA-Cw*1402 (human) [5]", "value": 3470, "unit": "MFI"}, {"measurement": "MFI", "setting": "HLA-Cw*1701 (human) [6]", "value": 3360, "unit": "MFI"}, {"measurement": "MFI", "setting": "HLA-B*3701 (human) [7]", "value": 29, "unit": "MFI"}, {"measurement": "MFI", "setting": "HLA-B*5101 (human) [8]", "value": 99, "unit": "MFI"}, {"measurement": "MFI", "setting": "HLA-Cw*0501 (human) [9]", "value": 70, "unit": "MFI"}, {"measurement": "MFI", "setting": "HLA-Cw*1402 (human) [10]", "value": 48, "unit": "MFI"}, {"measurement": "MFI", "setting": "HLA-Cw*1601 (human)", "value": 87, "unit": "MFI"}, {"measurement": "MFI", "setting": "HLA-Cw*1802 (human) [11]", "value": 35, "unit": "MFI"}, {"measurement": "MFI", "setting": "HLA-B*0801 (human)", "value": 262, "unit": "MFI"}, {"measurement": "MFI", "setting": "HLA-B*1402 (human)", "value": 517, "unit": "MFI"}, {"measurement": "MFI", "setting": "HLA-B*1801 (human) [12]", "value": 777, "unit": "MFI"}, {"measurement": "MFI", "setting": "HLA-B*2708 (human)", "value": 417, "unit": "MFI"}, {"measurement": "MFI", "setting": "HLA-B*3701 (human) [13]", "value": 784, "unit": "MFI"}, {"measurement": "MFI", "setting": "HLA-B*4002 (human)", "value": 655, "unit": "MFI"}, {"measurement": "MFI", "setting": "HLA-B*5101 (human) [14]", "value": 483, "unit": "MFI"}, {"measurement": "MFI", "setting": "HLA-B*5201 (human)", "value": 609, "unit": "MFI"}, {"measurement": "MFI", "setting": "HLA-B*5801 (human) [15]", "value": 938, "unit": "MFI"}, {"measurement": "MFI", "setting": "HLA-Cw*1402 (human) [16]", "value": 803, "unit": "MFI"}, {"measurement": "MFI", "setting": "HLA-Cw*1701 (human) [17]", "value": 676, "unit": "MFI"}, {"measurement": "MFI", "setting": "HLA-Cw*1802 (human) [18]", "value": 3810, "unit": "MFI"}]}, {"substance": "murine monoclonal antibody MAb MEM-E/02", "values": [{"measurement": "MEM-E/02 Reactivity Rank", "setting": "HLA-A*2501 (A25) (human)", "value": "> 65", "unit": "rank"}, {"measurement": "MEM-E/02 Reactivity Rank", "setting": "HLA-A*2601 (A26) (human)", "value": 60, "unit": "rank"}, {"measurement": "MEM-E/02 Reactivity Rank", "setting": "HLA-A*2901 (A29) (human)", "value": 48, "unit": "rank"}, {"measurement": "MEM-E/02 Reactivity Rank", "setting": "HLA-A*3201 (A32) (human)", "value": "> 65", "unit": "rank"}, {"measurement": "MEM-E/02 Reactivity Rank", "setting": "HLA-B*1401 (B64) (human)", "value": 7, "unit": "rank"}, {"measurement": "MEM-E/02 Reactivity Rank", "setting": "HLA-B*1513 (B77) (human)", "value": 41, "unit": "rank"}, {"measurement": "MEM-E/02 Reactivity Rank", "setting": "HLA-B*1516 (B63) (human)", "value": 43, "unit": "rank"}, {"measurement": "MEM-E/02 Reactivity Rank", "setting": "HLA-B*4403 (B44) (human)", "value": "> 65", "unit": "rank"}, {"measurement": "MEM-E/02 Reactivity Rank", "setting": "HLA-B*5901 (B59) (human)", "value": 20, "unit": "rank"}, {"measurement": "MEM-E/02 Reactivity Rank", "setting": "[19]", "value": "> 65", "unit": "rank"}, {"measurement": "MEM-E/02 Reactivity Rank", "setting": "[20]", "value": 8, "unit": "rank"}, {"measurement": "MEM-E/02 Reactivity Rank", "setting": "[21]", "value": "> 65", "unit": "rank"}]}]}
